Source: the supplement of paper PMC10724198
± gives the standard deviation of the averaged measurements.

What was measured:
[1] = system: Saccharomyces cerevisiae; assay: protein stability index of tFT-peptide fusion (C-terminal peptide) (PSI (0-1 scale)); higher = more stable (slower turnover)
Description: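 MPS profiling in S. cerevisiae of the tFT-X12 degron library: putative degron peptides plus stable controls, 12 aa, fused to the C-terminus of a sfGFP-mCherry timer. Cells are FACS-sorted into 8 mCherry/sfGFP bins and deep-sequenced. PSI runs from 0 (unstable) to 1 (stable). Backgrounds are wild type, das1Δ and doa10Δ at 30 °C, and wild type, das1Δ, cdc34-1 and cdc53-1 at 37 °C; 2-3 technical replicates each.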

[2] = system: Saccharomyces cerevisiae; assay: as above; conditions: genetic background: wild type; temperature: 30 C
[3] = genetic background: cdc34-1, temperature: 37 C
[4] = genetic background: cdc53-1, temperature: 37 C
[5] = genetic background: das1 deletion, temperature: 30 C
[6] = genetic background: das1 deletion, temperature: 37 C
[7] = genetic background: doa10 deletion, temperature: 30 C
[8] = genetic background: wild type, temperature: 30 C
[9] = genetic background: wild type, temperature: 37 C
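Also: PSI is a weighted mean of sequencing reads over stability bins, variants kept only with over 10 reads, mCherry proximal and sfGFP distal, peptide attached via GGGS linker.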

TKDFVIKKTKIS
protein stability index [1, 3]: 0.537 ± 0.017 | protein stability index [1, 4]: 0.7393 ± 0.0047 | protein stability index [1, 5]: 0.641 ± 0.019 | protein stability index [1, 6]: 0.737 ± 0.022 | protein stability index [1, 7]: 0.135 ± 0.03 | protein stability index [1, 8]: 0.159 ± 0.03 | protein stability index [1, 9]: 0.236 ± 0.028 | protein stability index [2]: 0.169 ± 0.021

PPPSRRLTLRLA
protein stability index [1, 3]: 0.612 ± 0.035 | protein stability index [1, 4]: 0.6993 ± 0.0065 | protein stability index [1, 5]: 0.681 ± 0.02 | protein stability index [1, 6]: 0.698 ± 0.009 | protein stability index [1, 7]: 0.179 ± 0.017 | protein stability index [1, 8]: 0.21 ± 0.02 | protein stability index [1, 9]: 0.397 ± 0.015 | protein stability index [2]: 0.292 ± 0.041

GFGRDHGNDTGP
protein stability index [1, 3]: 0.712 ± 0.017 | protein stability index [1, 4]: 0.7331 ± 0.0021 | protein stability index [1, 5]: 0.6497 ± 0.0025 | protein stability index [1, 6]: 0.75 ± 0.0082 | protein stability index [1, 7]: 0.645 ± 0.021 | protein stability index [1, 8]: 0.648 ± 0.02 | protein stability index [1, 9]: 0.725 ± 0.0097 | protein stability index [2]: 0.721 ± 0.0055

FELVWLCIIGAL
protein stability index [1, 3]: 0.415 ± 0.012 | protein stability index [1, 4]: 0.507 ± 0.031 | protein stability index [1, 5]: 0.331 ± 0.031 | protein stability index [1, 6]: 0.516 ± 0.01 | protein stability index [1, 7]: 0.106 ± 0.0082 | protein stability index [1, 8]: 0.122 ± 0.019 | protein stability index [1, 9]: 0.2271 ± 0.0017 | protein stability index [2]: 0.173 ± 0.04

VVRVIWCQFSCF
protein stability index [1, 3]: 0.494 ± 0.036 | protein stability index [1, 4]: 0.545 ± 0.016 | protein stability index [1, 5]: 0.414 ± 0.026 | protein stability index [1, 6]: 0.595 ± 0.017 | protein stability index [1, 7]: 0.208 ± 0.0071 | protein stability index [1, 8]: 0.234 ± 0.022 | protein stability index [1, 9]: 0.434 ± 0.027 | protein stability index [2]: 0.334 ± 0.0057

LVCLVASCVRWL
protein stability index [1, 3]: 0.453 ± 0.022 | protein stability index [1, 4]: 0.533 ± 0.0085 | protein stability index [1, 5]: 0.359 ± 0.037 | protein stability index [1, 6]: 0.5664 ± 0.0041 | protein stability index [1, 7]: 0.237 ± 0.0034 | protein stability index [1, 8]: 0.272 ± 0.027 | protein stability index [1, 9]: 0.4608 ± 0.0029 | protein stability index [2]: 0.357 ± 0.019

CSSSNRRRYFVL
protein stability index [1, 3]: 0.603 ± 0.034 | protein stability index [1, 4]: 0.706 ± 0.027 | protein stability index [1, 5]: 0.66 ± 0.014 | protein stability index [1, 6]: 0.724 ± 0.033 | protein stability index [1, 7]: 0.115 ± 0.022 | protein stability index [1, 8]: 0.131 ± 0.037 | protein stability index [1, 9]: 0.191 ± 0.0041 | protein stability index [2]: 0.187 ± 0.023

LEPFTGYTVIVM
protein stability index [1, 3]: 0.165 ± 0.045 | protein stability index [1, 4]: 0.185 ± 0.015 | protein stability index [1, 5]: 0.232 ± 0.045 | protein stability index [1, 6]: 0.331 ± 0.021 | protein stability index [1, 7]: 0.189 ± 0.0054 | protein stability index [1, 8]: 0.236 ± 0.034 | protein stability index [1, 9]: 0.261 ± 0.032 | protein stability index [2]: 0.334 ± 0.048

LAEHIFLVLDHG
protein stability index [1, 3]: 0.451 ± 0.026 | protein stability index [1, 4]: 0.485 ± 0.013 | protein stability index [1, 5]: 0.428 ± 0.0085 | protein stability index [1, 6]: 0.499 ± 0.0062 | protein stability index [1, 7]: 0.463 ± 0.024 | protein stability index [1, 8]: 0.432 ± 0.0071 | protein stability index [1, 9]: 0.478 ± 0.0089 | protein stability index [2]: 0.453 ± 0.013

WILPASFCVVFL
protein stability index [1, 3]: 0.502 ± 0.012 | protein stability index [1, 4]: 0.5334 ± 0.0024 | protein stability index [1, 5]: 0.385 ± 0.021 | protein stability index [1, 6]: 0.5556 ± 0.005 | protein stability index [1, 7]: 0.425 ± 0.019 | protein stability index [1, 8]: 0.397 ± 0.016 | protein stability index [1, 9]: 0.528 ± 0.032 | protein stability index [2]: 0.427 ± 0.027

HALCLSVYVSAH
protein stability index [1, 3]: 0.265 ± 0.0049 | protein stability index [1, 4]: 0.304 ± 0.022 | protein stability index [1, 5]: 0.249 ± 0.031 | protein stability index [1, 6]: 0.397 ± 0.018 | protein stability index [1, 7]: 0.179 ± 0.0045 | protein stability index [1, 8]: 0.185 ± 0.02 | protein stability index [1, 9]: 0.323 ± 0.018 | protein stability index [2]: 0.281 ± 0.024

SWMSQFSILLTA
protein stability index [1, 3]: 0.0938 ± 0.037 | protein stability index [1, 4]: 0.122 ± 0.0092 | protein stability index [1, 5]: 0.188 ± 0.021 | protein stability index [1, 6]: 0.23 ± 0.0046 | protein stability index [1, 7]: 0.1535 ± 0.00097 | protein stability index [1, 8]: 0.167 ± 0.031 | protein stability index [1, 9]: 0.199 ± 0.04 | protein stability index [2]: 0.285 ± 0.043

MLVLFCLCYILG
protein stability index [1, 3]: 0.2462 ± 0.0023 | protein stability index [1, 4]: 0.34 ± 0.013 | protein stability index [1, 5]: 0.231 ± 0.025 | protein stability index [1, 6]: 0.377 ± 0.0043 | protein stability index [1, 7]: 0.217 ± 0.013 | protein stability index [1, 8]: 0.235 ± 0.037 | protein stability index [1, 9]: 0.338 ± 0.03 | protein stability index [2]: 0.341 ± 0.0068

FKFGVFDFRFLC
protein stability index [1, 3]: 0.451 ± 0.063 | protein stability index [1, 4]: 0.686 ± 0.031 | protein stability index [1, 5]: 0.623 ± 0.011 | protein stability index [1, 6]: 0.7617 ± 0.0049 | protein stability index [1, 7]: 0.0716 ± 0.0051 | protein stability index [1, 8]: 0.0879 ± 0.036 | protein stability index [1, 9]: 0.115 ± 0.031 | protein stability index [2]: 0.109 ± 0.06

FASFLFFCYIIF
protein stability index [1, 3]: 0.124 ± 0.042 | protein stability index [1, 4]: 0.118 ± 0.0078 | protein stability index [1, 5]: 0.192 ± 0.034 | protein stability index [1, 6]: 0.2631 ± 0.00071 | protein stability index [1, 7]: 0.24 ± 0.022 | protein stability index [1, 8]: 0.154 ± 0.04 | protein stability index [1, 9]: 0.213 ± 0.018 | protein stability index [2]: 0.197 ± 0.0022

ILFIVSSCGCVG
protein stability index [1, 3]: 0.543 ± 0.031 | protein stability index [1, 4]: 0.557 ± 0.039 | protein stability index [1, 5]: 0.445 ± 0.037 | protein stability index [1, 6]: 0.5904 ± 0.0013 | protein stability index [1, 7]: 0.443 ± 0.024 | protein stability index [1, 8]: 0.446 ± 0.015 | protein stability index [1, 9]: 0.5724 ± 0.0043 | protein stability index [2]: 0.471 ± 0.0064

LMLGARVSRRIH
protein stability index [1, 3]: 0.64 ± 0.082 | protein stability index [1, 4]: 0.687 ± 0.015 | protein stability index [1, 5]: 0.673 ± 0.026 | protein stability index [1, 6]: 0.707 ± 0.026 | protein stability index [1, 7]: 0.227 ± 0.02 | protein stability index [1, 8]: 0.263 ± 0.049 | protein stability index [1, 9]: 0.5065 ± 0.0015 | protein stability index [2]: 0.402 ± 0.0098

FCRLCYLLLFCC
protein stability index [1, 3]: 0.37 ± 0.044 | protein stability index [1, 4]: 0.414 ± 0.012 | protein stability index [1, 5]: 0.404 ± 0.025 | protein stability index [1, 6]: 0.531 ± 0.022 | protein stability index [1, 7]: 0.211 ± 0.0056 | protein stability index [1, 8]: 0.196 ± 0.016 | protein stability index [1, 9]: 0.20208 ± 0.0002 | protein stability index [2]: 0.254 ± 0.022

LVSYHKMAISSF
protein stability index [1, 3]: 0.595 ± 0.017 | protein stability index [1, 4]: 0.58 ± 0.019 | protein stability index [1, 5]: 0.436 ± 0.022 | protein stability index [1, 6]: 0.626 ± 0.047 | protein stability index [1, 7]: 0.421 ± 0.0095 | protein stability index [1, 8]: 0.44 ± 0.022 | protein stability index [1, 9]: 0.571 ± 0.0095 | protein stability index [2]: 0.47 ± 0.051
